{
  "source": "patent US20190218304A1",
  "about": "“POTENTIATING THE EFFECT OF ATP RELEASE” (INNATE PHARMA, priority 2017, published 2019)",
  "key": {"[1]": {"molecular_target": "T1, soluble recombinant human CD39 protein (Homo sapiens, UniProt P49961)", "T1 construct": "made in house; host or cells: CHO cells", "T1 sequence (P49961 with tags, fused parts or gaps)": "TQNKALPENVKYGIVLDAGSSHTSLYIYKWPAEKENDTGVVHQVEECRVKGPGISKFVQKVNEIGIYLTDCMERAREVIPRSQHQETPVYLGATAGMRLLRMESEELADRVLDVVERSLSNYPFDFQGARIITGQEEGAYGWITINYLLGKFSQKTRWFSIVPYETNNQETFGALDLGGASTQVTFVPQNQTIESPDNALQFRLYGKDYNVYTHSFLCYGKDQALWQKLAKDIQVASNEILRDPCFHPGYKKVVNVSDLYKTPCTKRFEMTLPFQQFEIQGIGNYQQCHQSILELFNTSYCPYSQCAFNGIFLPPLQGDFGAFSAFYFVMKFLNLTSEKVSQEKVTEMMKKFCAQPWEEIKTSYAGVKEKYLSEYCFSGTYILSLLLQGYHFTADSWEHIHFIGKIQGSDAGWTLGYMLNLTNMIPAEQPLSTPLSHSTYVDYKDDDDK", "experiment": "Inhibition of the enzymatic activity of soluble CD39 (Cell Titer Glo)", "assay_type": "biochemical", "experimental": "The inhibition by antibodies of the enzymatic activity of soluble CD39 protein produced was evaluated using Cell Titer Glo™ (Promega, reference G7571) that allows assessment of ATP hydrolysis through use of a reagent that generates a luminescent signal proportional to the amount of ATP present. In this way, inhibition of the soluble-CD39-meidatd ATP hydrolysis can be assessed. Briefly, dose ranges of anti-CD39 antibodies from 100 μg/ml to 6×10^−3 μg/ml were incubated with 400 ng/ml of soluble recombinant human CD39 protein having the amino acid sequence described in the Methods section (SEQ ID NO: 39), for 1 h at 37° C. 20 μM ATP was added to the plates for 30 additional minutes at 37° C. before addition of CTG (Cell Titer Glo) reagent. Emitted light was quantified using an Enspire™ luminometer after a short incubation period of 5 min in the dark. Anti-CD39 antibody efficacy was determined by comparing emitted light in presence of antibody with ATP alone (maximal light emission) and ATP together with soluble CD39 protein (minimal light emission)."}, "[2]": {"test_system": "allogenic CD4 T cells", "experiment": "Mixed lymphocytes reaction (MLR) of ATP-activated DC with allogenic CD4 T cells", "assay_type": "cell-based, human", "conditions": "ATP-activated MoDC, 1 MoDC/4 T cells, 5 days", "experimental": "T cells activation and proliferation were analyzed through CD25 expression and Cell Trace Violet dilution by flow cytometry.\nBriefly, human monocytes were purified from human healthy blood and differentiated into MoDC in presence of GM-CSF and IL-4 during 6 days. Then MoDC were activated in presence of ATP (Sigma, 0.25-1 mM) during 24 hours and DC activation were assessed by analyzing CD80, CD83 and HLA-DR expression by flow cytometry. […] LPS (Invivogen, 10 ng/ml) was used as positive control. To assess resulting effect of ATP-mediated DC activation on CD4 T cells activation, ATP-activated DC were washed and then incubated with allogenic CD4 T cells (ratio 1 MoDC/4 T cells) for a mixed lymphocytes reaction (MLR) during 5 days. T cells activation and proliferation were analyzed through CD25 expression and Cell Trace Violet dilution by flow cytometry (FIG. 8)."}, "[3]": {"molecular_target": "T2, CHO cells expressing human CD39 (Homo sapiens, UniProt P49961)", "T2 construct": "expressed in transfected cells; host or cells: CHO cells", "T2 sequence (P49961 1-510)": "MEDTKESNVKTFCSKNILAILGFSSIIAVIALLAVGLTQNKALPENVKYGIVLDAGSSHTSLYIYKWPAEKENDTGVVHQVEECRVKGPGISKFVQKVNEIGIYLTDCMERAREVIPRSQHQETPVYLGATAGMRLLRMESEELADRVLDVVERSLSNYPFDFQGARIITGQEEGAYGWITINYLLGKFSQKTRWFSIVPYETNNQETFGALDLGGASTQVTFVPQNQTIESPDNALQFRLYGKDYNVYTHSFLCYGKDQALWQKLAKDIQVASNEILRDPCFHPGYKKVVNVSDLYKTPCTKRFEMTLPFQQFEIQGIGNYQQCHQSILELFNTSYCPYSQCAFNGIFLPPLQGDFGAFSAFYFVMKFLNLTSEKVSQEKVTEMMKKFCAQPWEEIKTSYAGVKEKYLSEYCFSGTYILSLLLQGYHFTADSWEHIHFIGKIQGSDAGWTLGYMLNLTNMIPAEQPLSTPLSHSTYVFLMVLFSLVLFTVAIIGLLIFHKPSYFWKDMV", "experiment": "Antibody titration by flow cytometry on CHO-huCD39", "assay_type": "binding", "experimental": "Cells were incubated with various concentration of unlabeled anti-CD39 antibody from 30 μg/ml to 5×10^−4 μg/ml, for 30 minutes at 4° C. After washes, cells were incubated with Goat anti-mouse H+L labeled secondary antibody for 30 min at 4° C."}, "[4]": {"molecular_target": "T3, CD39 expressed by Ramos human lymphoma cells (Homo sapiens, UniProt P49961)", "T3 construct": "host or cells: Ramos human lymphoma cells", "T3 sequence (P49961 1-510)": "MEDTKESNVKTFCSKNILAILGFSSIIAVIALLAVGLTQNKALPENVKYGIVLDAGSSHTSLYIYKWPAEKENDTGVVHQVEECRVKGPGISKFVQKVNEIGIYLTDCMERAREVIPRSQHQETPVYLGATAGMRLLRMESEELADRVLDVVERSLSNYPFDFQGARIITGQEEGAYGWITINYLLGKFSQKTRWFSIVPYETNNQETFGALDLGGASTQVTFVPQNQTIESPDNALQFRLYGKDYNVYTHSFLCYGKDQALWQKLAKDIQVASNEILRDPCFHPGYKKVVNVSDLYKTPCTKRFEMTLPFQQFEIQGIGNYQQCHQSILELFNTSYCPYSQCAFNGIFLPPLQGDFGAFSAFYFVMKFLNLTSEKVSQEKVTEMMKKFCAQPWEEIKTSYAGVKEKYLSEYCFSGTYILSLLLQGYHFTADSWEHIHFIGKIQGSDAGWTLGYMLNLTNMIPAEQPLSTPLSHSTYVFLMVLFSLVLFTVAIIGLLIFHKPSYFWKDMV", "experiment": "Inhibition of the enzymatic activity of cellular CD39, Ramos cells (Cell Titer Glo)", "assay_type": "cell-based", "experimental": "The inhibition of the CD39 enzymatic activity in CD39-expressing cells by antibodies was evaluated using Cell Titer Glo™ (Promega, reference G7571) that allows assessment of ATP hydrolysis through use of a reagent that generates a luminescent signal proportional to the amount of ATP present. The assay was thus designed to permit assessment of the inhibition of ATP hydrolyzed by CD39 in the cell culture supernatant. Briefly, 5×10^4 Ramos human lymphoma cells, 5×10^3 human CD39-, cynomolgus CD39- and mouse CD39-expressing CHO cells, were incubated 1 hour at 37° C. with anti-CD39 antibodies from 30 μg/ml to 5×10^−4 μg/ml. Cells were then incubated with 20 μM ATP for 1 additional hour at 37° C. Plates were centrifuged for 2 min at 400 g and 50 μl cell supernatant are transferred in a luminescence microplate (white wells). 50 μl CellTiter-Glo® Reagent (CTG) was added to the supernatant and emitted light was quantified after a 5 min incubation in the dark using a Enspire™ luminometer. Anti-CD39 antibody efficacy was determined by comparing emitted light in presence of antibody with ATP alone (maximal light emission) and ATP together with cells (minimal light emission)."}, "[5]": {"molecular_target": "T4, human CD39 (Homo sapiens, UniProt P49961)", "T4 sequence (P49961 1-510)": "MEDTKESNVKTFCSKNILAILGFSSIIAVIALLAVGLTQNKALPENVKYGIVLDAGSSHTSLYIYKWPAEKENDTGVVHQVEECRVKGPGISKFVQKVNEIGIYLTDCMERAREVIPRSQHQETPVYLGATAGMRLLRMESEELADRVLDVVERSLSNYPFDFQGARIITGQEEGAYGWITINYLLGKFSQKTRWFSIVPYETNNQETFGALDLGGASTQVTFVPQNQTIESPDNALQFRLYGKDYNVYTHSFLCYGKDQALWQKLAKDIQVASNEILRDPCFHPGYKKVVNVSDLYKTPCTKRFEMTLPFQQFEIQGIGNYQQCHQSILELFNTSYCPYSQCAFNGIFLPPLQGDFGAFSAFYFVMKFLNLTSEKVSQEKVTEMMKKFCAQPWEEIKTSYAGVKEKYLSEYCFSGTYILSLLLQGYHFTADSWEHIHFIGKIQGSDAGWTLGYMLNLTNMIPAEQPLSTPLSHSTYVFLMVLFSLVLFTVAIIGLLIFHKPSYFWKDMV", "experiment": "ELISA titration on human CD39", "assay_type": "binding", "conditions": "coated recombinant protein, OD=450", "experimental": "Wells were washed in TBS Tween 20, and further saturated 2H at RT in TBS Blocking buffer. Dose range concentration of primary antibody was incubated in TBS blocking buffer for 2 h at RT. Wells were washed in TBS Tween 20. […] Optical density was measured on Enspire™ at OD=450."}},
  "note": "“Also recorded” adds a separate entry of the source.",
  "data": [
    {"molecule": "I-394: anti-CD39 antibody, VH SEQ ID NO: 3, VL SEQ ID NO: 4; heavy and light chains SEQ ID NOS: 37 and 38 (antibody, Chimeric homo sapiens mus musculus) heavy: EVQLQQSGPELVKPGASVKMSCKASGYTFTDYNMHWVKQSHGRTLEWIGYIVPLNGGSTFNQKFKGRATLTVNTSSRTAYMELRSLTSEDSAAYYCARGGTRFAYWGQGTLVTVSAASTKGPSVFPLAPSSKSTSGGTAALGCLVKDYFPEPVTVSWNSGALTSGVHTFPAVLQSSGLYSLSSVVTVPSSSLGTQTYICNVNHKPSNTKVDKRVEPKSCDKTHTCPPCPAPEAEGAPSVFLFPPKPKDTLMISRTPEVTCVVVDVSHEDPEVKFNWYVDGVEVHNAKTKPREEQYNSTYRVVSVLTVLHQDWLNGKEYKCKVSNKALPSSIEKTISKAKGQPREPQVYTLPPSREEMTKNQVSLTCLVKGFYPSDIAVEWESNGQPENNYKTTPPVLDSDGSFFLYSKLTVDKSRWQQGNVFSCSVMHEALHNHYTQKSLSLSPGK light: DIVLTQSPASLAVSLGQRATISCRASESVDNFGVSFMYWFQQKPGQPPNLLIYGASNQGSGVPARFRGSGSGTDFSLNIHPMEADDTAMYFCQQTKEVPYTFGGGTKLEIKRTVAAPSVFIFPPSDEQLKSGTASVVCLLNNFYPREAKVQWKVDNALQSGNSQESVTEQDSKDSTYSLSSTLTLSKADYEKHKVYACEVTHQGLSSPVTKSFNRGEC", "values": [
      {"measurement": "maximum inhibition achieved, soluble CD39", "setting": "[1]; 400 ng/ml soluble CD39, 20 μM ATP", "result": 74.9, "unit": "%"},
      {"measurement": "inhibition of ATPase activity of soluble CD39 when spiked into negative hybridoma supernatants", "setting": "[1]; antibody added to hybridoma supernatants negative for sCD39 inhibition", "result": "did not restore the ability of negative supernatants to inhibit ATPase activity of CD39"},
      {"measurement": "inhibition of ATPase activity after purification from negative supernatant", "setting": "[1]; antibody purified from the negative supernatant with Protein A coated beads", "result": "again able to inhibit"},
      {"measurement": "inhibition of the enzymatic (ATPase) activity of soluble CD39 protein", "setting": "[1]; result in words", "result": "strong inhibition; also recorded: inhibit soluble CD39; also recorded: inhibits the enzymatic activity; also recorded: highly potent at blocking the enzymatic activity"},
      {"measurement": "T cell proliferation and activation (CD25 expression, Cell Trace Violet dilution) in MLR", "setting": "[2]", "result": "higher T cell proliferation and activation"},
      {"measurement": "binding to cells expressing human CD39 (CHO-huCD39)", "setting": "[3]", "result": "bound; also recorded: binds"},
      {"measurement": "maximum inhibition achieved, cellular CD39", "setting": "[4]; Ramos cells, 20 μM ATP", "result": 81.6, "unit": "%"},
      {"measurement": "blocking CD39 enzymatic activity in tumor (Ramos) cells", "setting": "[4]; result in words", "result": "highly potent at blocking CD39 enzymatic activity"},
      {"measurement": "binding to human CD39 in ELISA", "setting": "[5]", "result": "bound; also recorded: binds to human CD39"}
    ]}
  ]
}
